Data on three molecules can be found in paper PMC9841335, “Structure of a bacterial ribonucleoprotein complex central to the control of cell envelope biogenesis” (The EMBO Journal, 2022).

First the molecules themselves.
B1: RNase E-NTD (residues 1-598, Δ568–582, D346C) (domain or fragment)
chain: not shown
notes: also called mutant RNase E‐NTD; RNase E catalytic domain; source: E. coli BL21(DE3), pET16 vector, purified (IMAC, butyl Sepharose, Superdex 200 SEC)

Data set [1] deals with the molecule itself. Put plainly: cryo-EM structure; RNase E-NTD (D346C), full-length RapZ and full-length GlmZ RNA at 5:25:10 μM in 25 mM HEPES pH 7.5, 300 KCl, 1 mM MgCl2, cross-linked with 0.01% glutaraldehyde, Superose 6 SEC, graphene oxide-coated grids; binary RapZ:GlmZ and ternary classes from one dataset.
The target of data set [2] is B1. The description is as above. The following applies: both partners purified.
Data set [3] concerns the target T1, RNase E-NTD (wild type, BACTH fusion) (E. coli, UniProt P21513 1-529).
T1 construct: RNase E, E. coli, N-terminal catalytic domain (NTD); The text calls the two-hybrid partner 'RNase E' and its variants 'RNase E‐NTD variants'; also called RNase E wild type; source: bacterial two-hybrid fusion (pUT18C-type plasmid) in E. coli BTH101
Nature of the data set: two-hybrid; adenylate cyclase-based bacterial two-hybrid (BACTH) in E. coli BTH101, pKT25 (T25-RapZ) and pUT18C-type plasmids, LB with 1 mM IPTG, β-galactosidase activity; endogenous GlmZ present in the cell. The following applies: partners not purified.

As for B1, the “stoichiometry N” value in data set [1] turned out to be 4.

B2: RapZ (full-length, purified recombinant) (natural protein, E. coli, UniProt P0A894 1-284, looked up)
chain: MVLMIVSGRSGSGKSVALRALEDMGFYCVDNLPVVLLPDLARTLADREISAAVSIDVRNMPESPEIFEQAMSNLPDAFSPQLLFLDADRNTLIRRYSDTRRLHPLSSKNLSLESAIDKESDLLEPLRSRADLIVDTSEMSVHELAEMLRTRLLGKRERELTMVFESFGFKHGIPIDADYVFDVRFLPNPHWDPKLRPMTGLDKPVAAFLDRHTEVHNFIYQTRSYLELWLPMLETNNRSYLTVAIGCTGGKHRSVYIAEQLADYFRSRGKNVQSRHRTLEKRKP
notes: The Strep-tag is cleavable by TEV protease; Construct and procedure follow Gonzalez et al, 2017; In all complexes with RNase E-NTD the sRNA GlmZ was present; also called RapZ tetramer; full‐length RapZ; source: E. coli Rosetta, plasmid pMCSG7, purified (Strep Trap HP, Superdex 200 SEC)
With B2, the “stoichiometry N” value in data set [2] was 2 RapZ tetramers per RNase E-NTD tetramer; in data set [1], 4.

B3: T25-RapZ 4 substitutions (T161A, Y240A, N271A, Q273A; BACTH fusion) (natural protein, E. coli, UniProt P0A894 1-284, looked up)
chain: MVLMIVSGRSGSGKSVALRALEDMGFYCVDNLPVVLLPDLARTLADREISAAVSIDVRNMPESPEIFEQAMSNLPDAFSPQLLFLDADRNTLIRRYSDTRRLHPLSSKNLSLESAIDKESDLLEPLRSRADLIVDTSEMSVHELAEMLRTRLLGKRERELAMVFESFGFKHGIPIDADYVFDVRFLPNPHWDPKLRPMTGLDKPVAAFLDRHTEVHNFIYQTRSYLELWLPMLETNNRSALTVAIGCTGGKHRSVYIAEQLADYFRSRGKAVASRHRTLEKRKP
notes: RapZ, E. coli, with alanine substitutions of Q273, N271, Y240 and T161; source: bacterial two-hybrid fusion (pKT25 plasmid) in E. coli BTH101
For the molecule B3, in data set [3], the “fold decrease of the BACTH signal against wild-type RapZ” value was 2 fold.

The term stoichiometry N denotes a count of units in the complex or per binding partner.
